Assay [1] concerns central trigeminovascular neurons (medullary dorsal horn). As to the kind of experiment: Seizure (picrotoxin)-induced activation of trigeminovascular neurons, single-unit recording. It is filed as in vivo. To be noted: rat. From the text: Cortical electrodes were used to trace the magnitude, extent and progression of epileptiform seizures.
Single-unit recordings were obtained from neurons in the trigeminal ganglion and dorsal horn as described in previous studies (Burstein et al. (1998) J. Neurophysiol. 79: 964-82; Strassman and Levy (2006) J. Neurophysiol. 95: 1298-306; Strassman et al. (1996) Nature 384: 560-4; Zhang et al. (2010) J. Neurosci. 30: 8807-14; and Zhang et al. (2011) Ann. Neurol. 69: 855-65). Experiments were done in adult Sprague-Dawley rats (250 g to 350 g). Animals were anesthetized with urethane (1.2-1.5 g/kg), artificially ventilated with oxygen, and paralyzed. Body temperature was controlled, and end-tidal CO2 and oxygen saturation was monitored. For ganglion recordings, four separate craniotomies were made: over the contralateral cortex, to advance the microelectrode; over the ipsilateral parietal cortex, and the ipsilateral occipital cortex, for application of the picrotoxin and recording of electrocorticogram activity; and over the ipsilateral transverse sinus, for electrical and mechanical stimulation of dural afferents, and lidocaine application. For dorsal horn recording, the same craniotomies were made over the ipsilateral cortex and the ipsilateral transverse sinus, but no contralateral craniotomy was made. Instead, a laminectomy was made to expose the upper cervical spinal cord (C1-2) for microelectrode recording. In both the trigeminal ganglion and the dorsal horn recording experiments, the search stimulus for finding dura-sensitive neurons is single-shock electrical stimulation applied to the dura covering the transverse sinus.
Seizure was induced by application of picrotoxin to the surface of the cerebral cortex (10 μl, applied on a small piece of gelfoam, at a concentration of either 5 mM or 100 mM, for focal or generalized seizure, respectively). For verification of seizure induction, cortical activity was recorded with a glass micropipette (0.9% saline, ˜1 megohm, 7 μm tip) placed just below the surface of the cerebral cortex, at the parietal and the occipital site. […]

In assay [2] the test system is CSD-sensitized central trigeminovascular neurons (HT, WDR) in the spinal trigeminal nucleus. Kind of assay: Activation and sensitization of trigeminovascular neurons by cortical spreading depression (CSD). It counts as in vivo, rat. To be noted: for mean firing rate of HT neurons after CSD: 6 hours after 30 mg/kg i.v.; for mean firing rate of HT neurons before CSD: 4 hours after 30 mg/kg i.v. Here is the method: Cortical spreading depression (CSD) was induced mechanically by inserting a glass micropipette (tip diameter 25 μm) about 1 mm into the visual cortex for 10 sec. At a propagation rate of 3-5 mm/min, a single wave of CSD was expected to enter the neuronal receptive field within 1-2 min of cortical stimulation. For verification of CSD, cortical activity was recorded (electrocorticogram) with a glass micropipette (0.9% saline, ˜1 megohm, 7 um tip) placed just below the surface of the cerebral cortex (approximately 100 μm). The electrocorticogram electrode was positioned about 6 mm anterior to the visual cortex.
It was diluted in saline to a final dose of 30 mg/kg and administered intravenously (bolus injection, total volume 0.6-0.7 ml). A corresponding human IgG2 isotype control antibody (isotype-conAb) was also diluted in saline to a final dose of 30 mg/kg and administered intravenously (bolus injection, total volume 1.6-2.0 ml).
The experimental protocol included two parts. The first part was designed to compare CGRP-mAb vs isotype-conAb effects on spontaneous and induced activity of naïve trigeminovascular neurons, and the second part was designed to test CGRP-mAb vs isotype-conAb effects on the activation and sensitization of trigeminovascular neurons by CSD. Both parts included sampling of WDR and HT neurons in male and female rats. In the first part, the baseline neuronal profile was established by (a) mapping the dural, cutaneous and corneal receptive field; (b) measuring responses (mean spikes/sec) to mechanical stimulation of the dura (with a fixed force), skin (brush, pressure, pinch) and cornea (brush), and (c) measuring spontaneous firing rate (recorded over 30 min prior to treatment). Once the baseline was established, CGRP-mAb or isotype-conAb were administered and receptive fields were remapped, neuronal responses to stimulation of the dura, skin and cornea were re-examined, and the spontaneous activity rate was re-sampled at 1, 2, 3, and 4 hours post-treatment. The resulting values for each measure were then compared with the respective baseline values obtained before treatment. In the second part, CSD was induced 4 hours after administration of CGRP-mAb or isotype-conAb and 2 hours later (i.e., 6 hours after treatment) receptive field size, spontaneous activity rate, and response magnitude to stimulation of the dura, skin and cornea were measured again. The resulting post-CSD values for each measure were then compared with the respective pre-CSD values obtained at the 4-hour post-treatment time. This part was initiated only in cases in which the physiological condition of the rats (heart rate, blood pressure, respiration, end tidal CO2) and the neuronal isolation signal (signal-to-noise ratio ≥1:3) were stable at the 4-hour post-treatment time point.
To calculate the response magnitude to each stimulus, the mean firing frequency occurring before the onset of the first stimulus (30 min for spontaneous activity, 10 sec for mechanical stimulation of the dura, skin and cornea) was subtracted from the mean firing frequency that occurred throughout the duration of each stimulus. […] A neuron was considered activated when its mean firing rate after CSD exceeded its mean baseline activity by 2 standard deviations of that mean for a period >10 min, which translated to ≥33% increase in activity. […] Mean firing rates of respective values were compared using nonparametric statistics (Wilcoxon signed-ranks test). Two-tailed level of significance was set at 0.05.

[3] abbreviates: male and female rats, case-by-case analysis.

B1: G1: humanized monoclonal anti-CGRP antagonist antibody; heavy chain SEQ ID NO:11, light chain SEQ ID NO:12 (antibody)
heavy: EVQLVESGGGLVQPGGSLRLSCAASGFTFSNYWISWVRQAPGKGLEWVAEIRSESDASATHYAEAVKGRFTISRDNAKNSLYLQMNSLRAEDTAVYYCLAYFDYGLAIQNYWGQGTLVTVSSASTKGPSVFPLAPCSRSTSESTAALGCLVKDYFPEPVTVSWNSGALTSGVHTFPAVLQSSGLYSLSSVVTVPSSNFGTQTYTCNVDHKPSNTKVDKTVERKCCVECPPCPAPPVAGPSVFLFPPKPKDTLMISRTPEVTCVVVDVSHEDPEVQFNWYVDGVEVHNAKTKPREEQFNSTFRVVSVLTVVHQDWLNGKEYKCKVSNKGLPSSIEKTISKTKGQPREPQVYTLPPSREEMTKNQVSLTCLVKGFYPSDIAVEWESNGQPENNYKTTPPMLDSDGSFFLYSKLTVDKSRWQQGNVFSCSVMHEALHNHYTQKSLSLSPGK
light: EIVLTQSPATLSLSPGERATLSCKASKRVTTYVSWYQQKPGQAPRLLIYGASNRYLGIPARFSGSGSGTDFTLTISSLEPEDFAVYYCSQSYNYPYTFGQGTKLEIKRTVAAPSVFIFPPSDEQLKSGTASVVCLLNNFYPREAKVQWKVDNALQSGNSQESVTEQDSKDSTYSLSSTLTLSKADYEKHKVYACEVTHQGLSSPVTKSFNRGEC
With B1, the “neurons activated by the seizure (number/total)” value in assay [1] (30 mg/kg i.v. four hours before induction of seizure, medullary dorsal horn, untreated 28/30) is listed as 2/13. For the same molecule, in assay [1] (30 mg/kg i.v. four hours before induction of seizure, medullary dorsal horn, untreated 93%), the “neurons activated by the seizure (percent)” value came out at 15%. The “activation of central trigeminovascular neuron by seizure (FIG. 9)” value in assay [1] (30 mg/kg intravenously four hours before induction of seizure) was “prevented the activation of a central trigeminovascular neuron but not the occurrence of a seizure”. Moreover, in assay [2] (case-by-case analysis), the “difference between CGRP-mAb and isotype-conAb in HT neurons activated by CSD” value stood at 86%; the “difference between CGRP-mAb and isotype-conAb in WDR neurons activated by CSD” value amounted to 2%. Moreover, in assay [2] (female rats), the “HT neurons with expansion of dural receptive fields after CSD (number/total)” value is on record as 0/6, the “HT neurons with expansion of facial receptive fields after CSD (number/total)” value is listed as 0/6, the “response of HT neurons to dural indentation with VFH before CSD” value is given as 10.5±1.6 spikes/sec and the “mean firing rate of HT neurons before CSD” value is recorded as 3.3±1.7 spikes/sec. In addition, the “response of HT neurons to brushing the cornea after CSD vs before” value in assay [2] (female rats, 6 HT neurons, p=0.51) is “remained unchanged”. Also, in assay [2] (female rats, 2 hours after CSD), the “mean firing rate of HT neurons after CSD” value is 5.0±3.4 spikes/sec. In addition, in assay [2] (female rats, 2 hours after CSD, 6 hours after administration), the “response of HT neurons to dural indentation with VFH after CSD” value amounted to 8.1±6.4 spikes/sec. Besides, the “neuronal responses of HT neurons to brush, pressure and pinch after CSD vs before” value in assay [2] (male and female rats, 2 hours after CSD, 6 hours after administration) is “remained unchanged”. Besides, in assay [2] (setting [3]), the “HT neurons activated by CSD (number/total)” value is 2/14 and the “WDR neurons activated by CSD (number/total)” value was 5/13. In addition, in assay [2] (male rats), the “HT neurons with expansion of dural receptive fields after CSD (number/total)” value is 2/8, the “HT neurons with expansion of facial receptive fields after CSD (number/total)” value was 2/8, the “response of HT neurons to corneal stimulation after CSD” value came to 9.4±1.8 spikes/sec and the “response of HT neurons to corneal stimulation before CSD” value was determined as 10.8±3.3 spikes/sec. In addition, in assay [2] (male rats), the “response of HT neurons to dural indentation with VFH before CSD” value is listed as 1.8±0.6 spikes/sec and the “mean firing rate of HT neurons before CSD” value is 1.2±0.6 spikes/sec. Besides, in assay [2] (male rats, 2 hours after CSD), the “mean firing rate of HT neurons after CSD” value is reported as 1.9±1.5 spikes/sec. For the same molecule, in assay [2] (male rats, 2 hours after CSD, 6 hours after administration), the “response of HT neurons to dural indentation with VFH after CSD” value is on record as 1.9±1.5 spikes/sec.

(Values after patent US20190071490A1, “Preventing Post-Ictal Headaches” (Beth Israel Deaconess Medical Center, Inc., priority 2017, published 2019).)
